Results reported in PMC9136706.
Values joined by “and” are separate entries in the source; they are usually repeats but may differ in a detail not shown here. Identical values can stand only once.

Key:
[1] = target: Expanded P22 virus-like particle (bacteriophage P22 capsid) (bacteriophage P22) (UniProt P26747); experiment: SEC-MALS
[2] = target: DechCD40L (Dec-fused human CD40L) (bacteriophage L | human) (UniProt P29965); experiment: SEC
[3] = target: human CD40 on HEK-Blue CD40L cells (human) (UniProt P25942)
UniProt P25942, sequence (P25942 21-277): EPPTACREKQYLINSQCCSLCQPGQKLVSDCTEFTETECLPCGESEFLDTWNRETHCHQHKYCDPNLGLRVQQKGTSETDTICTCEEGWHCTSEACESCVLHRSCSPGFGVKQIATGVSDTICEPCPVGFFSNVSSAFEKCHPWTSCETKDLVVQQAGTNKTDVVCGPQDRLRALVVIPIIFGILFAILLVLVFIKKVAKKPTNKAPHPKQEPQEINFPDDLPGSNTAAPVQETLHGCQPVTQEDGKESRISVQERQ

UniProt P26747, sequence (P26747 whole entry, the tested form may be a part): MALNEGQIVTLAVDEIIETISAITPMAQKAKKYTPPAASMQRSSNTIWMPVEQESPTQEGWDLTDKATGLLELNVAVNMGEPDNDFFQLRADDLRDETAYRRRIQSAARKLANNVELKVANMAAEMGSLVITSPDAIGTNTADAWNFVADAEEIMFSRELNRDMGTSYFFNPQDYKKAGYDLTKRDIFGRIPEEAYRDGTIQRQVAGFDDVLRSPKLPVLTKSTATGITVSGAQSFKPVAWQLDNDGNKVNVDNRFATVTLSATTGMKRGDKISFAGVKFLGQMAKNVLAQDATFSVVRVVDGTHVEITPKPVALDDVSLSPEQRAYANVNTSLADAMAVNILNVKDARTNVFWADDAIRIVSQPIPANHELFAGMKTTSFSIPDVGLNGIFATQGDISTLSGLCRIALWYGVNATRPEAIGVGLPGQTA

Dec (decoration protein of bacteriophage L), wild type (natural protein)
stoichiometry N (Dec per capsid) [1]: 60

DechCD40L (Dec-fused human CD40L) (from UniProt P29965 114-261) (ligand)
percent of the total peak in the shoulder multimer peak [2]: 8.2%
stoichiometry N [2]: 3 and 6

DechCD40L bound to P22 (DechCD40L-P22) (from UniProt P29965 114-261; P26747 1-430) (complex)
fold lower EC50 of the SEAP reporter than free hCD40L [3]: 53.6 fold
